Measured values reported in patent US20250163182A1 (Janssen / Centocor, published 2025).

How the values were obtained:
[1] = target: T1, human ENPP3 on cells (human, UniProt O14638 1-875); assay: cell-based or functional assay
T1 sequence (looked up): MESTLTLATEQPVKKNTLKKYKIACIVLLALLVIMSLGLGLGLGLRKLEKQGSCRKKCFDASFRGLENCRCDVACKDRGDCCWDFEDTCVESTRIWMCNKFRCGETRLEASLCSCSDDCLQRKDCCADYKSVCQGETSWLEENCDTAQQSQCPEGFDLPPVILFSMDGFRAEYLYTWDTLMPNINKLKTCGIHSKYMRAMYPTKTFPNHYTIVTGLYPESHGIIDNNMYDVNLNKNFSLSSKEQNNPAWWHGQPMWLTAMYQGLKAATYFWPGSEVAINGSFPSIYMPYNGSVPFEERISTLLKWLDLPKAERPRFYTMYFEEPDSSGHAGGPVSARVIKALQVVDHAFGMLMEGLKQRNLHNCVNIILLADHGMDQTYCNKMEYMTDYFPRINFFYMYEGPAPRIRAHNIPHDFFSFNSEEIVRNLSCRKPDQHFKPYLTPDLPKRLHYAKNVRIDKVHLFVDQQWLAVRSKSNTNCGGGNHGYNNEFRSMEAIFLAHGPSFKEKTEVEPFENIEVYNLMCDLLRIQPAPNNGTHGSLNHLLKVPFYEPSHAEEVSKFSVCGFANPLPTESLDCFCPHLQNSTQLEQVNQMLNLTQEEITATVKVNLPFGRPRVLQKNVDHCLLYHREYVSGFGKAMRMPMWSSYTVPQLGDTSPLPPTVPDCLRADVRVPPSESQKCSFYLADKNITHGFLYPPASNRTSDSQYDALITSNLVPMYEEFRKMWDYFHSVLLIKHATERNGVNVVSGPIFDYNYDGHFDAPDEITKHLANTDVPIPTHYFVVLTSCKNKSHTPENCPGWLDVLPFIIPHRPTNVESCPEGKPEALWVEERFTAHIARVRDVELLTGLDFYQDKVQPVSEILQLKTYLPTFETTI

[2] = target: T1, human ENPP3 on cells; assay: cell-based or functional assay; remark: listed apart in the source
[3] = target: T2, human CD3 on T cells (human, UniProt P07766 23-207); assay: flow cytometry on human T cells, average of 6 donors
T2 construct: on T cells it stands in the TCR-CD3 complex; also called human T cells; T cells isolated from healthy human donors

[4] = target: T2, human CD3 on T cells; assay: flow cytometry on human T cells, donor 110048457
[5] = target: T3, ENPP1 on CHOK1 cells (UniProt P22413 1-925, limits assumed); assay: flow cytometry on CHO cells overexpressing ENPP1
T3 construct: whole, on cells; also called ectonucleotide pyrophosphatase/phosphodiesterase family member 1; CHO ENPP1 OE
T3 sequence (looked up): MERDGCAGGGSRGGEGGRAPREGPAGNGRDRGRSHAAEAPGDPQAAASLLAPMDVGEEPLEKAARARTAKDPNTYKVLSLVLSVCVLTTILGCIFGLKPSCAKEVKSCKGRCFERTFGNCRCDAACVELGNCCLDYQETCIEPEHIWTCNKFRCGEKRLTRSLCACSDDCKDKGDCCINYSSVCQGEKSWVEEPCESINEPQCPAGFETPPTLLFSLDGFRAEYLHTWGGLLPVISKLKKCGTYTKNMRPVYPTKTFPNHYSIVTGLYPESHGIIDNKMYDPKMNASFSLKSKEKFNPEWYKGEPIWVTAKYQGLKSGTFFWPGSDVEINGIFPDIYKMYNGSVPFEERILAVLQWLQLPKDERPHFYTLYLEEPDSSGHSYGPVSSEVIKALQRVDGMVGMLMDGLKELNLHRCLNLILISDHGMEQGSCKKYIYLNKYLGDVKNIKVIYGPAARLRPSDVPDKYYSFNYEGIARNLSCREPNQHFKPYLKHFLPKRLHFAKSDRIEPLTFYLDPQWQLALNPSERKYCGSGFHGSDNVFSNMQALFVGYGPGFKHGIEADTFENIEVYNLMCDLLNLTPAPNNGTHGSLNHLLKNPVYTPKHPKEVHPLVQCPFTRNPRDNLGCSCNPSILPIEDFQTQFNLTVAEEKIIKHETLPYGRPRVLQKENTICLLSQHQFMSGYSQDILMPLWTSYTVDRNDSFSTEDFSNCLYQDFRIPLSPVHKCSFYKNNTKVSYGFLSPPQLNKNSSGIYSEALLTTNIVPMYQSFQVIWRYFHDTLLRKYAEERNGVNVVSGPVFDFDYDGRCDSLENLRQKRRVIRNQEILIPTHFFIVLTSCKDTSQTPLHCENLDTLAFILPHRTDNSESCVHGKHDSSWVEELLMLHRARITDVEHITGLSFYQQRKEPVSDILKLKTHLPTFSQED

T2 sequence (P07766 23-207 limits assumed): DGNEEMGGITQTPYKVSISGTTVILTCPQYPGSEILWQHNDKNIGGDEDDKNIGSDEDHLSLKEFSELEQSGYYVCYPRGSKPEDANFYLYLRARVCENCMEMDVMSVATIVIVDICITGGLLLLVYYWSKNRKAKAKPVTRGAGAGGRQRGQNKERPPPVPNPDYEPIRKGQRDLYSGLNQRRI

B1: NPP3B815 (bispecific antibody, human IgG1, kappa, L234A L235A)
heavy 1: EIVLTQSPATLSASPGERVTLSCSASSSVSYMNWYQQKPGCAPRRWIYDSSKLASGVPARFSGSGSGRDYTLTISSLEPEDFAVYYCQQWSRNPPTFGGGTKVEIKGGGSGGSGGCPPCGGSGGQVQLVQSGAEVKKPGSSVKVSCKASGYTFTRSTMHWVKQAPGQGLEWIGYINPSSAYTNYNQKFQGRVTLTADKSTSTAYMELSSLRSEDTAVYYCASPQVHYDYAGFPYWGCGTLVTVSSEPKSSDKTHTCPPCPAPEAAGGPSVFLFPPKPKDTLMISRTPEVTCVVVSVSHEDPEVKFNWYVDGVEVHNAKTKPREEQYNSTYRVVSVLTVLHQDWLNGKEYKCKVSNKALPAPIEKTISKAKGQPREPQVYTLPPSREEMTKNQVSLWCLVKGFYPSDIAVEWESNGQPENNYKTTPPVLDSDGSFFLYSKLTVDKSRWQQGNVFSCSVMHEALHNHYTQKSLSLSPGK
heavy 2: EVQLVESGGGRVKPGGSLRLSCAASGFTFSDYSMNWVRQAPGKGLEWVSSISSISSYVKYADSVKGRFTMSRDNAKNSLFLQMNSLRDEDMAVYYCARGHYFDYWGQGTLVTVSSASTKGPSVFPLAPSSKSTSGGTAALGCLVKDYFPEPVTVSWNSGALTSGVHTFPAVLQSSGLYSLSSVVTVPSSSLGTQTYICNVNHKPSNTKVDKKVEPKSCDKTHTCPPCPAPEAAGGPSVFLFPPKPKDTLMISRTPEVTCVVVSVSHEDPEVKFNWYVDGVEVHNAKTKPREEQYNSTYRVVSVLTVLHQDWLNGKEYKCKVSNKALPAPIEKTISKAKGQPREPQVYTLPPSREEMTKNQVSLSCAVKGFYPSDIAVEWESNGQPENNYKTTPPVLDSDGSFFLVSKLTVDKSRWQQGNVFSCSVMHEALHNRFTQKSLSLSPGK
light: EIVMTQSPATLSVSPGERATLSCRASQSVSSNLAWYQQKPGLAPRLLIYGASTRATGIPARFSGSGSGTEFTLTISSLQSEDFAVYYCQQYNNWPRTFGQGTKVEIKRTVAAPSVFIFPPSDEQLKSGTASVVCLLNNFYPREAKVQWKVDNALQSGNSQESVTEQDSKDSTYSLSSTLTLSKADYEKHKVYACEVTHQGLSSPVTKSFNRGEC
notes: HC2 carries the NPP3B56 Fab and the hole T366S, L368A, Y407V; Fc with L234A, L235A, D265S; The CPPC linker cysteines form disulfides with engineered Cys at L42 and H105 (Chothia); also called NPP3B56×CD3B2030-N106A; ENPP3×CD3 (NPP3B815)
Question: Which results are given for B1?
Answer: T-cell activation (Flow Cytometry) EC50; A704; E:T 3:1 [1]: 0.011 nM; T-cell activation (Flow Cytometry) EC50; HepG2; E:T 3:1 [1]: 0.041 nM; T-cell activation (Flow Cytometry) EC50; VMRCRCW; E:T 3:1 [1]: 0.018 nM; Tumor cell killing (Incucyte) EC50; A704; E:T 3:1 [1]: 0.03 nM; Tumor cell killing (Incucyte) EC50; HepG2; E:T 3:1 [1]: 0.53 nM; Tumor cell killing (Incucyte) EC50; TUHR4TKB; E:T 3:1 [1]: 0.05 nM; Tumor cell killing (Incucyte) EC50; TUHR10TKB; E:T 3:1 [1]: 0.02 nM; Tumor cell killing (Incucyte) EC50; VMRCRCW; E:T 3:1 [1]: 0.13 nM; killing EC50 @ 72 hrs; A704; T-cell donor 110040278; E:T 1:1 [2]: 0.075 nM; killing EC50 @ 72 hrs; A704; T-cell donor 110040278; E:T 3:1 [2]: 0.0484 nM; killing EC50 @ 72 hrs; A704; T-cell donor 110042496; E:T 1:1 [2]: 0.132 nM; killing EC50 @ 72 hrs; A704; T-cell donor 110042496; E:T 3:1 [2]: 0.0696 nM; killing EC50 @ 72 hrs; A704; T-cell donor 110042593; E:T 1:1 [2]: 0.114 nM; killing EC50 @ 72 hrs; A704; T-cell donor 110042593; E:T 3:1 [2]: 0.0336 nM; killing EC50 @ 72 hrs; A704; T-cell donor 110044049; E:T 3:1 [2]: 0.0524 nM; killing EC50 @ 72 hrs; A704; T-cell donor 888668965; E:T 3:1 [2]: 0.0454 nM; killing EC50 @ 72 hrs; VMRCRCW; T-cell donor 110040278; E:T 1:1 [2]: 0.243 nM; killing EC50 @ 72 hrs; VMRCRCW; T-cell donor 110040278; E:T 1:3 [2]: 0.456 nM; killing EC50 @ 72 hrs; VMRCRCW; T-cell donor 110040278; E:T 3:1 [2]: 0.0923 nM; killing EC50 @ 72 hrs; VMRCRCW; T-cell donor 110042496; E:T 1:1 [2]: 0.465 nM; killing EC50 @ 72 hrs; VMRCRCW; T-cell donor 110042496; E:T 3:1 [2]: 0.128 nM; killing EC50 @ 72 hrs; VMRCRCW; T-cell donor 110042593; E:T 1:1 [2]: 0.225 nM; killing EC50 @ 72 hrs; VMRCRCW; T-cell donor 110042593; E:T 3:1 [2]: 0.0795 nM; killing EC50 @ 72 hrs; VMRCRCW; T-cell donor 110044049; E:T 1:1 [2]: 0.151 nM; killing EC50 @ 72 hrs; VMRCRCW; T-cell donor 110044049; E:T 1:3 [2]: 0.226 nM; killing EC50 @ 72 hrs; VMRCRCW; T-cell donor 110044049; E:T 3:1 [2]: 0.115 nM; killing EC50 @ 72 hrs; VMRCRCW; T-cell donor 110048457; E:T 1:1 [2]: 0.177 nM; killing EC50 @ 72 hrs; VMRCRCW; T-cell donor 110048457; E:T 1:3 [2]: 0.276 nM; killing EC50 @ 72 hrs; VMRCRCW; T-cell donor 110048457; E:T 3:1 [2]: 0.372 nM; killing EC50 @ 72 hrs; VMRCRCW; T-cell donor 888668965; E:T 1:1 [2]: 0.273 nM; killing EC50 @ 72 hrs; VMRCRCW; T-cell donor 888668965; E:T 1:3 [2]: 0.469 nM; killing EC50 @ 72 hrs; VMRCRCW; T-cell donor 888668965; E:T 3:1 [2]: 0.156 nM; killing EC50 @ 120 hrs; A704; T-cell donor 110040278; E:T 1:1 [2]: 0.041 nM; killing EC50 @ 120 hrs; A704; T-cell donor 110040278; E:T 1:3 [2]: 0.149 nM; killing EC50 @ 120 hrs; A704; T-cell donor 110042496; E:T 1:1 [2]: 0.073 nM; killing EC50 @ 120 hrs; A704; T-cell donor 110042496; E:T 1:3 [2]: 0.191 nM; killing EC50 @ 120 hrs; A704; T-cell donor 110042593; E:T 1:1 [2]: 0.048 nM; killing EC50 @ 120 hrs; A704; T-cell donor 110042593; E:T 1:3 [2]: 0.106 nM; killing EC50 @ 120 hrs; A704; T-cell donor 110044049; E:T 1:1 [2]: 0.125 nM; killing EC50 @ 120 hrs; A704; T-cell donor 888668965; E:T 1:3 [2]: 0.163 nM; killing EC50 @ 120 hrs; VMRCRCW; T-cell donor 110040278; E:T 1:1 [2]: 0.264 nM; killing EC50 @ 120 hrs; VMRCRCW; T-cell donor 110040278; E:T 1:3 [2]: 0.332 nM; killing EC50 @ 120 hrs; VMRCRCW; T-cell donor 110042496; E:T 1:1 [2]: 0.454 nM; killing EC50 @ 120 hrs; VMRCRCW; T-cell donor 110042496; E:T 1:3 [2]: 0.5 nM; killing EC50 @ 120 hrs; VMRCRCW; T-cell donor 110042593; E:T 1:1 [2]: 0.218 nM; killing EC50 @ 120 hrs; VMRCRCW; T-cell donor 110042593; E:T 1:3 [2]: 0.485 nM; killing EC50 @ 120 hrs; VMRCRCW; T-cell donor 110044049; E:T 1:1 [2]: 0.216 nM; killing EC50 @ 120 hrs; VMRCRCW; T-cell donor 110044049; E:T 1:3 [2]: 0.337 nM; killing EC50 @ 120 hrs; VMRCRCW; T-cell donor 110048457; E:T 1:1 [2]: 0.21 nM; killing EC50 @ 120 hrs; VMRCRCW; T-cell donor 110048457; E:T 1:3 [2]: 0.267 nM; killing EC50 @ 120 hrs; VMRCRCW; T-cell donor 888668965; E:T 1:1 [2]: 0.345 nM; killing EC50 @ 120 hrs; VMRCRCW; T-cell donor 888668965; E:T 1:3 [2]: 0.379 nM; EC50 [3]: 177 nM; EC50 [4]: 132 nM; binding result [5]: no binding (tested: 100 nM)
